Source: patent US20190338048A1
Read-outs that look alike come from different tables or passages of the source. Each block holds one substance with its values, some of them ahead of it.

Experiments:
[1] = biological target: Pertuzumab kappa light chain Q124R_Q160K_T178R; assay: LCCA
[2] = biological target: Pertuzumab kappa light chain Q124R_L135W_T178R; assay: LCCA
[3] = biological target: Pertuzumab kappa light chain Q124R_Q160K_T178R; assay: LCCA; remark: listed apart in the source
[4] = biological target: Pertuzumab kappa light chain Q124R_L135W_Q160K_T178R; assay: LCCA
[5] = biological target: CAT-2200 lambda light chain S176K_Y178K (L1), N-terminal FLAG tag; assay: LCCA, SPR of light chain tags
[6] = biological target: Pertuzumab kappa light chain V133D (L2), N-terminal HA tag; assay: LCCA, SPR of light chain tags
[7] = biological target: Pertuzumab kappa light chain V133D (L2), N-terminal HA tag; assay: LCCA, SPR of light chain tags; remark: listed apart in the source
[8] = biological target: CAT-2200 lambda light chain S176E_Y178E (L1), FLAG-tagged; assay: LCCA, SPR of light-chain tags
[9] = biological target: CAT-2200 lambda light chain V133L_S176D_Y178E (L1), FLAG-tagged; assay: LCCA, SPR of light-chain tags
[10] = biological target: CAT-2200 lambda light chain S176E_Y178E (L1), FLAG-tagged; assay: LCCA, SPR of light-chain tags; remark: listed apart in the source
[11] = biological target: CAT-2200 lambda light chain V133L_S176D_Y178E (L1), FLAG-tagged; assay: LCCA, SPR of light-chain tags; remark: listed apart in the source
[12] = biological target: Pertuzumab kappa light chain V133A_S176K_T178A (L2), HA-tagged; assay: LCCA, SPR of light-chain tags
[13] = biological target: Pertuzumab kappa light chain V133G_S176R_T178A (L2), HA-tagged; assay: LCCA, SPR of light-chain tags
[14] = biological target: Pertuzumab kappa light chain V133A_S176K_T178A (L2), HA-tagged; assay: LCCA, SPR of light-chain tags; remark: listed apart in the source
[15] = biological target: Pertuzumab kappa light chain V133G_S176R_T178A (L2), HA-tagged; assay: LCCA, SPR of light-chain tags; remark: listed apart in the source
[16] = biological target: Pertuzumab kappa light chain S176K_T178L (L2), HA-tagged; assay: LCCA, SPR of light-chain tags
[17] = biological target: Pertuzumab kappa light chain S176K_T178R (L2), HA-tagged; assay: LCCA, SPR of light-chain tags
[18] = biological target: Pertuzumab kappa light chain S176K_T178K (L2), HA-tagged; assay: LCCA, SPR of light-chain tags
[19] = biological target: Pertuzumab kappa light chain S176K_T178L (L2), HA-tagged; assay: LCCA, SPR of light-chain tags; remark: listed apart in the source
[20] = biological target: Pertuzumab kappa light chain S176K_T178R (L2), HA-tagged; assay: LCCA, SPR of light-chain tags; remark: listed apart in the source
[21] = biological target: Pertuzumab kappa light chain S176K_T178K (L2), HA-tagged; assay: LCCA, SPR of light-chain tags; remark: listed apart in the source
[22] = biological target: Pertuzumab kappa light chain S176K_T178R (L2), HA-tagged; assay: LCCA, SPR of light-chain tags; remark: listed apart in the source
[23] = biological target: Pertuzumab kappa light chain S176K_T178K (L2), HA-tagged; assay: LCCA, SPR of light-chain tags; remark: listed apart in the source
[24] = biological target: Pertuzumab kappa light chain S176K_T178L (L2), HA-tagged; assay: LCCA, SPR of light-chain tags; remark: listed apart in the source
[25] = biological target: Pertuzumab kappa light chain S176K_T178R (L2), HA-tagged; assay: LCCA, SPR of light-chain tags; remark: listed apart in the source
[26] = biological target: Pertuzumab kappa light chain S176K_T178K (L2), HA-tagged; assay: LCCA, SPR of light-chain tags; remark: listed apart in the source
[27] = biological target: Pertuzumab kappa light chain S176K_T178L (L2), HA-tagged; assay: LCCA, SPR of light-chain tags; remark: listed apart in the source
[28] = biological target: Pertuzumab kappa light chain S176K_T178R (L2), HA-tagged; assay: LCCA, SPR of light-chain tags; remark: listed apart in the source
[29] = biological target: Pertuzumab kappa light chain S176K_T178K (L2), HA-tagged; assay: LCCA, SPR of light-chain tags; remark: listed apart in the source
[30] = biological target: CAT-2200 heavy chain Fab construct (H1) L143E_K145T_Q179E; assay: LCCA, SPR tag read-out
[31] = biological target: Pertuzumab kappa light chain S131K_V133G_S176R_T178A (L2), HA-tagged; assay: LCCA, SPR of light-chain tags
[32] = biological target: Pertuzumab kappa light chain S131R_V133G_S176R_T178A (L2), HA-tagged; assay: LCCA, SPR of light-chain tags
[33] = biological target: Pertuzumab kappa light chain S131K_V133G_S176R_T178A (L2), HA-tagged; assay: LCCA, SPR of light-chain tags; remark: listed apart in the source
[34] = biological target: Pertuzumab kappa light chain S131R_V133G_S176R_T178A (L2), HA-tagged; assay: LCCA, SPR of light-chain tags; remark: listed apart in the source
[35] = biological target: CAT-2200 lambda light chain S176E_Y178E (L1), FLAG-tagged; assay: LCCA, SPR of light-chain tags; remark: listed apart in the source
[36] = biological target: CAT-2200 lambda light chain V133L_S176D_Y178E (L1), FLAG-tagged; assay: LCCA, SPR of light-chain tags; remark: listed apart in the source
[37] = biological target: Pertuzumab kappa light chain Q124K_S176A_T178R; assay: LCCA
[38] = biological target: Pertuzumab kappa light chain Q124E_Q160E_S176A_T178A_T180E (L2), N-terminal HA tag; assay: LCCA, SPR of light chain tags
[39] = biological target: CAT-2200 heavy chain Fab construct (H1) L124E; assay: LCCA, SPR tag read-out
[40] = biological target: Pertuzumab kappa light chain Q124E_V133D_S176E_T178E_T180E; assay: LCCA
[41] = biological target: CAT-2200 lambda light chain Y178K; assay: LCCA
[42] = biological target: Pertuzumab kappa light chain Q124E_V133D_S176E_T180E; assay: LCCA
[43] = biological target: Pertuzumab kappa light chain S121K_S131K; assay: LCCA
[44] = biological target: Pertuzumab kappa light chain S121K_T129K_S131K; assay: LCCA
[45] = biological target: CAT-2200 heavy chain Fab construct (H1) L143E_K145T; assay: LCCA, SPR tag read-out
[46] = biological target: Pertuzumab kappa light chain Q124K_V133A_T178R; assay: LCCA
[47] = biological target: CAT-2200 lambda light chain K129T_V133W_S180E; assay: LCCA
[48] = biological target: Pertuzumab kappa light chain V133A_S176K (L2), HA-tagged; assay: LCCA, SPR of light-chain tags
[49] = biological target: Pertuzumab kappa light chain V133G_S176R (L2), HA-tagged; assay: LCCA, SPR of light-chain tags
[50] = biological target: Pertuzumab kappa light chain V133A_S176K (L2), HA-tagged; assay: LCCA, SPR of light-chain tags; remark: listed apart in the source
[51] = biological target: Pertuzumab kappa light chain V133G_S176R (L2), HA-tagged; assay: LCCA, SPR of light-chain tags; remark: listed apart in the source
[52] = biological target: Pertuzumab kappa light chain Q124E_Q160E_S176D_T178D; assay: LCCA
[53] = biological target: Pertuzumab kappa light chain Q124E_Q160E_S176D_T178D_T180E; assay: LCCA
[54] = biological target: Pertuzumab kappa light chain S131K_L135A; assay: LCCA
[55] = biological target: CAT-2200 heavy chain Fab construct (H1) Q179K; assay: LCCA, SPR tag read-out
[56] = biological target: CAT-2200 heavy chain Fab construct (H1) S186R; assay: LCCA, SPR tag read-out
[57] = biological target: CAT-2200 heavy chain Fab construct (H1) Q179K; assay: LCCA, SPR tag read-out; remark: listed apart in the source
[58] = biological target: CAT-2200 heavy chain Fab construct (H1) D146G_Q179K; assay: LCCA, SPR tag read-out
[59] = biological target: CAT-2200 heavy chain Fab construct (H1) S186R; assay: LCCA, SPR tag read-out; remark: listed apart in the source

Substance: Pertuzumab Fab heavy chain L124E_S188W (H2)
H2L2:H2L1 normalized median ratio (H2L1 share) [8]: 46%
H2L2:H2L1 normalized median ratio (H2L1 share) [9]: 15%
H2L2:H2L1 normalized median ratio (H2L1 share) [10]: 46%
H2L2:H2L1 normalized median ratio (H2L1 share) [11]: 14%
H2L2:H2L1 normalized median ratio, H2L2 share [12]: 54%
H2L2:H2L1 normalized median scalar value ln(r1/f1) [12]: 0.18
H2L2:H2L1 normalized median ratio, H2L2 share [13]: 54%
H2L2:H2L1 normalized median scalar value ln(r1/f1) [13]: 0.15
H2L2:H2L1 normalized median ratio, H2L2 share [14]: 85%
H2L2:H2L1 normalized median scalar value ln(r1/f1) [14]: 1.71
H2L2:H2L1 normalized median ratio, H2L2 share [15]: 86%
H2L2:H2L1 normalized median scalar value ln(r1/f1) [15]: 1.84

Substance: Pertuzumab Fab heavy chain L124E_K145T_Q179E_S188W (H2)
H2L2:H2L1 normalized median ratio (H2L1 share) [8]: 15%
H2L2:H2L1 normalized median ratio (H2L1 share) [9]: 12%
H2L2:H2L1 normalized median ratio, H2L2 share [31]: 85%
H2L2:H2L1 normalized median scalar value ln(r1/f1) [31]: 1.77
H2L2:H2L1 normalized median ratio, H2L2 share [32]: 89%
H2L2:H2L1 normalized median scalar value ln(r1/f1) [32]: 2.13
H2L2:H2L1 normalized median ratio, H2L2 share [33]: 88%
H2L2:H2L1 normalized median scalar value ln(r1/f1) [33]: 1.98
H2L2:H2L1 normalized median ratio, H2L2 share [34]: 92%
H2L2:H2L1 normalized median scalar value ln(r1/f1) [34]: 2.4
H2L2:H2L1 normalized median ratio (H2L1 share) [35]: 11%
H2L2:H2L1 normalized median ratio (H2L1 share) [36]: 8%

Substance: Pertuzumab Fab heavy chain L143E_K145T_S188W
H2L2:H2L1 median scalar value [37]: 0.43 ln

Substance: CAT-2200 lambda light chain construct (L1) V133G_S176R, FLAG-tagged
H1L1:H1L2 normalized median scalar value ln(r1/f1) [39]: 0.08

Substance: Pertuzumab Fab heavy chain K145T_Q179E_K228D
H2L2:H2L1 median scalar value [43]: -0.1 ln
H2L2:H2L1 median scalar value [44]: 0.07 ln
H2L2:H2L1 normalized median ratio [44]: 51%

Substance: CAT-2200 lambda light chain construct (L1) E124R, FLAG-tagged
H1L1:H1L2 normalized median scalar value ln(r1/f1) [45]: -0.11

Substance: Pertuzumab Fab heavy chain L124E (H2)
H2L2:H2L1 normalized median scalar value ln(r1/f1) [48]: -0.15
H2L2:H2L1 normalized median scalar value ln(r1/f1) [49]: 0.25
H2L2:H2L1 normalized median scalar value ln(r1/f1) [50]: 1.69
H2L2:H2L1 normalized median scalar value ln(r1/f1) [51]: 2.32

Substance: Pertuzumab Fab heavy chain S186R_S188K
H2L2:H2L1 normalized median ratio [41]: 31%
H2L2:H2L1 median scalar value [52]: 0.8 ln
H2L2:H2L1 normalized median ratio [52]: 69%
H2L2:H2L1 median scalar value [53]: 0 ln

Substance: Pertuzumab Fab heavy chain K145T_Q179E_S188F_V190F
H2L2:H2L1 median scalar value [54]: -0.45 ln

Substance: CAT-2200 lambda light chain construct (L1) S180E, FLAG-tagged
H1L1:H1L2 normalized median scalar value ln(r1/f1) [55]: 0.94
H1L1:H1L2 normalized median scalar value ln(r1/f1) [56]: 2.24
H1L1:H1L2 normalized median scalar value ln(r1/f1) [57]: 2.32
H1L1:H1L2 normalized median scalar value ln(r1/f1) [58]: 2.16
H1L1:H1L2 normalized median scalar value ln(r1/f1) [59]: 2.07

The next lines start with the values.

H2L2:H2L1 median scalar value [1]: 3.09 ln
H2L2:H2L1 median scalar value [2]: -0.32 ln
H2L2:H2L1 median scalar value [3]: 0.86 ln
H2L2:H2L1 median scalar value [4]: -0.26 ln
Substance: Pertuzumab Fab heavy chain L143E_K145T

H2L2:H2L1 normalized median ratio [5]: 38%
H2L2:H2L1 normalized median ratio [6]: 70%
H2L2:H2L1 normalized median scalar value ln(r1/f1) [6]: 0.85
H2L2:H2L1 normalized median ratio [7]: 62%
H2L2:H2L1 normalized median scalar value ln(r1/f1) [7]: 0.49
Substance: Pertuzumab Fab heavy chain S186K_S188T (H2), ABD2-His6 tagged

H2L2:H2L1 normalized median scalar value ln(r1/f1) [16]: 2.29
H2L2:H2L1 normalized median scalar value ln(r1/f1) [17]: 1.64
H2L2:H2L1 normalized median scalar value ln(r1/f1) [18]: 1.83
H2L2:H2L1 normalized median scalar value ln(r1/f1) [19]: 1.52
H2L2:H2L1 normalized median scalar value ln(r1/f1) [20]: 1.9
H2L2:H2L1 normalized median scalar value ln(r1/f1) [21]: 1.95
H2L2:H2L1 normalized median scalar value ln(r1/f1) [22]: 1.75
H2L2:H2L1 normalized median scalar value ln(r1/f1) [23]: 1.09
H2L2:H2L1 normalized median scalar value ln(r1/f1) [24]: 1.59
H2L2:H2L1 normalized median scalar value ln(r1/f1) [25]: 1.59
H2L2:H2L1 normalized median scalar value ln(r1/f1) [26]: 1.93
H2L2:H2L1 normalized median scalar value ln(r1/f1) [27]: 2.11
H2L2:H2L1 normalized median scalar value ln(r1/f1) [28]: 2.3
H2L2:H2L1 normalized median scalar value ln(r1/f1) [29]: 2.4
Substance: Pertuzumab Fab heavy chain K145T_V177D_S188D (H2)

H1L1:H1L2 normalized median scalar value ln(r1/f1) [30]: -0.13
Substance: CAT-2200 lambda light chain construct (L1) E124K_Y178R, FLAG-tagged

H2L2:H2L1 normalized median scalar value ln(r1/f1) [38]: 2.64
Substance: Pertuzumab Fab heavy chain S186R_S188W (H2), ABD2-His6 tagged

H2L2:H2L1 median scalar value [40]: 0.61 ln
H2L2:H2L1 normalized median ratio [41]: 27%
H2L2:H2L1 median scalar value [42]: 1.01 ln
H2L2:H2L1 normalized median ratio [42]: 73%
Substance: Pertuzumab Fab heavy chain L143K_S188K

H2L2:H2L1 median scalar value [46]: 0.73 ln
H2L2:H2L1 normalized median ratio [46]: 67%
H2L2:H2L1 normalized median ratio [47]: 33%
Substance: Pertuzumab Fab heavy chain L124W_L143E_K145T
